Our source for the stoichiometry N (ζ-protein per F-ATPase complex) values is paper PMC4593670.

The assay concerns the target F-ATPase from Paracoccus denitrificans (nine core subunits α, β, γ, δ, ε, a, b, b' and c) (Paracoccus denitrificans (strain PD1222)) (UniProt A1B8N8). Nature of the assay: reverse-phase LC-MS of the subunits of the purified complex; subunits of F-ATPase I fractionated by reverse-phase chromatography, online electrospray MS; amounts estimated from peak areas of the ion traces, ζ against the δ-subunit.
UniProt A1B8N8, sequence (A1B8N8 whole entry, looked up, stated change not applied, tested part not stated): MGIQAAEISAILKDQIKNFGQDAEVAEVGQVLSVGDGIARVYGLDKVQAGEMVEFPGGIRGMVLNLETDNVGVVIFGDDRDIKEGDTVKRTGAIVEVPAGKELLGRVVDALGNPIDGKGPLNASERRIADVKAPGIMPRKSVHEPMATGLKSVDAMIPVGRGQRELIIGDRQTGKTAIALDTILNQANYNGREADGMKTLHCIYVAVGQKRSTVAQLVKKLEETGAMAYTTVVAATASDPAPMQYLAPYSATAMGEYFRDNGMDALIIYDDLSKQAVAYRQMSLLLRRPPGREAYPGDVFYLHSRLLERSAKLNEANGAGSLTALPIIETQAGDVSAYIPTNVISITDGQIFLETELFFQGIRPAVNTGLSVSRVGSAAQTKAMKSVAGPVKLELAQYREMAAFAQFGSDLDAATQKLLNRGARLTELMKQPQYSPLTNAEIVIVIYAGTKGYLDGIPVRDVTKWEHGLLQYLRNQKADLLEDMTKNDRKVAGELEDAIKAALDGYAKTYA

Take “ζ inhibitor protein of the F-ATPase from Paracoccus denitrificans (natural protein)”: the stoichiometry N (ζ-protein per F-ATPase complex) is 1.
